Assay results: US20100254982A1 (VIVENTIA BIOTECHNOLOGIES, published 2010)

Columns and labels:
[1] = target: Glucose transporter 8 (GLUT8), cancer-associated variant expressed on the surface of cancer cells (VB1-050 antigen) (human) (UniProt Q9NY64); experiment: cell-based or functional assay
[2] = target: Glucose transporter 8 (GLUT8), cancer-associated variant expressed on the surface of cancer cells (VB1-050 antigen) (human) (UniProt Q9NY64); experiment: flow cytometry saturation curve on antigen-positive cells
[3] = target: T1, Glucose transporter 8 (GLUT8), cancer-associated variant expressed on the surface of cancer cells (VB1-050 … (human, UniProt Q9NY64 1-477)); experiment: flow cytometry, normal lung cell line NHLF
T1 construct: whole, on cells; Endogenous antigen of human tumor cell lines, identified by immunoprecipitation with VB1-050 and mass spectrometry from HepG2 and MCF-7 membranes; Only L12A and L13A are printed with old and new residues; In the immunoprecipitations the membrane preparations were deglycosylated with N-Glycanase; also called VB1-050Ag; VB1-050 Ag
T1 sequence (looked up): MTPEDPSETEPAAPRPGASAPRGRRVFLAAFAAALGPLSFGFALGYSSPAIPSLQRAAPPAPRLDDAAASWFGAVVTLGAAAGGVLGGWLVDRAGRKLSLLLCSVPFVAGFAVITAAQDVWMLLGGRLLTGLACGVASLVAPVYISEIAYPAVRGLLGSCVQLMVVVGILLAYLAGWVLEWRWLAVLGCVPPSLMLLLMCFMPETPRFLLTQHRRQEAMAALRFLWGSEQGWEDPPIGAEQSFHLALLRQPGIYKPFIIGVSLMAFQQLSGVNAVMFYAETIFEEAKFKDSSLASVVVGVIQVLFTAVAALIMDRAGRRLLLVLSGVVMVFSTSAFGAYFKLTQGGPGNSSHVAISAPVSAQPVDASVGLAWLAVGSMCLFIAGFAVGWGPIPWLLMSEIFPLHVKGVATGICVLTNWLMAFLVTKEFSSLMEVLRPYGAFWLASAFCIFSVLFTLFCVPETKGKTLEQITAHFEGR

[4] = target: T1, Glucose transporter 8 (GLUT8), …; experiment: flow cytometry, normal kidney cell line HRE
[5] = target: T1, Glucose transporter 8 (GLUT8), …; experiment: flow cytometry, normal breast cell line HMEC
[6] = target: T1, Glucose transporter 8 (GLUT8), …; experiment: flow cytometry, normal prostate cell line PrEC
[7] = target: T1, Glucose transporter 8 (GLUT8), …; experiment: flow cytometry, normal endothelial cell line HUVEC
[8] = target: T1, Glucose transporter 8 (GLUT8), …; experiment: flow cytometry titration on A-375 cells, Lineweaver-Burk method
[9] = target: T1, Glucose transporter 8 (GLUT8), …; experiment: flow cytometry, bladder tumor cell lines UM-UC-3, T24 (mean of 2)
[10] = target: T1, Glucose transporter 8 (GLUT8), …; experiment: flow cytometry, liver tumor cell lines SK-HEP-1, Hep-G2 (mean of 2)
[11] = target: T1, Glucose transporter 8 (GLUT8), …; experiment: flow cytometry, rectum tumor cell lines Sw837, NCI-H630 (mean of 2)
[12] = target: T1, Glucose transporter 8 (GLUT8), …; experiment: flow cytometry, cervix tumor cell lines HeLa, C-41, C-33A (mean of 3)
[13] = target: T1, Glucose transporter 8 (GLUT8), …; experiment: flow cytometry, colon tumor cell lines HT-29, SW480, WiDr (mean of 3)
[14] = target: T1, Glucose transporter 8 (GLUT8), …; experiment: flow cytometry, ovarian tumor cell lines SK-OV-3, OVCar-3 (mean of 2)
[15] = target: T1, Glucose transporter 8 (GLUT8), …; experiment: flow cytometry, kidney tumor cell lines Caki-1, A498, ACHN (mean of 3)
[16] = target: T1, Glucose transporter 8 (GLUT8), …; experiment: flow cytometry, head & neck tumor cell lines SCC-15, SCC-25 (mean of 2)
[17] = target: T1, Glucose transporter 8 (GLUT8), …; experiment: flow cytometry, endometrium tumor cell lines RL-95-2, HEC-1-A (mean of 2)
[18] = target: T1, Glucose transporter 8 (GLUT8), …; experiment: flow cytometry, prostate tumor cell lines DU-145, PC-3, LNCaP (mean of 3)
[19] = target: T1, Glucose transporter 8 (GLUT8), …; experiment: flow cytometry, lung tumor cell lines A-549, NCI-H460, NCI-H69 (mean of 3)
[20] = target: T1, Glucose transporter 8 (GLUT8), …; experiment: flow cytometry, melanoma cell lines A-375, SK-MEL-5, SK-MEL-28 (mean of 3)
[21] = target: T1, Glucose transporter 8 (GLUT8), …; experiment: flow cytometry, stomach tumor cell lines AGS, NCI-N-87, KATO III (mean of 3)
[22] = target: T1, Glucose transporter 8 (GLUT8), …; experiment: flow cytometry, pancreas tumor cell lines PANC-1, BxPC-3, MIA PaCa-2 (mean of 3)
[23] = target: T1, Glucose transporter 8 (GLUT8), …; experiment: flow cytometry, breast tumor cell lines MCF-7, MDA-MB-231, MDA-MB-435S (mean of 3)
[24] = target: T1, Glucose transporter 8 (GLUT8), …; experiment: flow cytometry on A-375 cells, cells kept on ice for 120 minutes; above negative control human IgG (4B5)
[25] = target: T1, Glucose transporter 8 (GLUT8), …; experiment: flow cytometry on A-375 cells, surface-bound antibody left after 60 min at 37 °C (internalization experiment)
[26] = target: T1, Glucose transporter 8 (GLUT8), …; experiment: flow cytometry on A-375 cells, surface-bound antibody left after 120 min at 37 °C (internalization experiment)
[27] = target: T1, Glucose transporter 8 (GLUT8), …; experiment: flow cytometry competition on antigen-positive cells; competitor VB6-050 fixed at 250 µg/mL, detected with anti-bouganin antibody

B1: VB6-050 (soluble Fab-de-bouganin fusion protein derived from VB1-050) (Fab, V domains shown)
VH: EVQLLESGGDLVQPGGSLRLSCAASGFTFSNYAMSWVRQAPGKGLEWVSAITPSGGSTNYADSVKGRFTISRDNSQNTLYLQMNSLRVEDTAVYYCGRVPYRSTWYPLYWGQGTLVTVSS
VL: DIQMTQSPSSLSASVGDRVTITCRASQDISNYLAWFQRKPGKAPKSLIYAASSLHSKVPTQFSGSGSGTDFTLTISSLQPEDFATYYCLQYSTYPITFGGGTKVEIK
IC50 (MTS cytotoxicity assay, 5 days, antigen-positive cells MB-435S) [1]: 400 nM
saturation point [2]: 250 µg/mL

B2: VB1-050 monoclonal antibody (antibody, V domains shown)
VH: EVQLLESGGDLVQPGGSLRLSCAASGFTFSNYAMSWVRQAPGKGLEWVSAITPSGGSTNYADSVKGRFTISRDNSQNTLYLQMNSLRVEDTAVYYCGRVPYRSTWYPLYWGQGTLVTVSS
VL: DIQMTQSPSSLSASVGDRVTITCRASQDISNYLAWFQRKPGKAPKSLIYAASSLHSKVPTQFSGSGSGTDFTLTISSLQPEDFATYYCLQYSTYPITFGGGTKVEIKR
notes: also called VB1-050 IgG; parental IgG
MF (mean fold increase in median fluorescence over control antibody) [3]: 8.7 fold
MF (mean fold increase in median fluorescence over control antibody) [4]: 12.5 fold
MF (mean fold increase in median fluorescence over control antibody) [5]: 3.1 fold
MF (mean fold increase in median fluorescence over control antibody) [6]: 2.1 fold
MF (mean fold increase in median fluorescence over control antibody) [7]: 5 fold
Kd [8]: 49 nM
MF (mean fold increase in median fluorescence over control antibody) [9]: 9.8 fold
MF (mean fold increase in median fluorescence over control antibody) [10]: 14.6 fold
MF (mean fold increase in median fluorescence over control antibody) [11]: 15.2 fold
MF (mean fold increase in median fluorescence over control antibody) [12]: 11.8 fold
MF (mean fold increase in median fluorescence over control antibody) [13]: 13.3 fold
MF (mean fold increase in median fluorescence over control antibody) [14]: 21.7 fold
MF (mean fold increase in median fluorescence over control antibody) [15]: 18.4 fold
MF (mean fold increase in median fluorescence over control antibody) [16]: 11.4 fold
MF (mean fold increase in median fluorescence over control antibody) [17]: 7 fold
MF (mean fold increase in median fluorescence over control antibody) [18]: 19.6 fold
MF (mean fold increase in median fluorescence over control antibody) [19]: 14.8 fold
MF (mean fold increase in median fluorescence over control antibody) [20]: 22.7 fold
MF (mean fold increase in median fluorescence over control antibody) [21]: 9.6 fold
MF (mean fold increase in median fluorescence over control antibody) [22]: 7.6 fold
MF (mean fold increase in median fluorescence over control antibody) [23]: 29.9 fold
Fold-increase in MF [24]: 129 fold
Fold-increase in MF [25]: 49.2 fold
Fold-increase in MF [26]: 39.3 fold
IC50 [27]: 180 µg/mL
